The target of experiment [1] is T1, recombinant human PAD4 (human, UniProt Q9UM07 1-663). Description: cell-based or functional assay.
Experiment [2] deals with T1, recombinant human PAD4. As to the kind of experiment: SPR 37 C, captured antibody, PAD4 analyte, 1 mM CaCl2. As for the experimental part:
Their binding to human PAD4 was measured by Surface Plasmon Resonance (SPR). SPR measurements were performed with a Biacore® 8K, 8K+, or T200 instrument (Cytiva). The association rate constants, kₒₙ, dissociation rate constants, koff, and equilibrium dissociation constants, KD, of the antibodies with PAD4 were determined from these SPR measurements.
(§1) For SPR measurements, either an anti-human capture surface or Protein A surface (Cytiva catalog #29127555) was used. Anti-human capture surface was prepared by immobilizing anti-human capture antibody (Cytiva catalog #29234600) onto flow cells of a CM5 or CM4 biosensor following the manufacturer's amine coupling protocol (Cytiva catalog #BR-1006-33). SPR experiments were conducted at 37° C. using HBS-P (150 mM NaCl, 10 mM HEPES, pH 7.6, 0.05% Tween-20) (TEKNOVA catalog #H8032) with additional 150 mM NaCl and 1 mM or 2 mM CaCl₂) (see Table 2) or 2 mM EDTA (see Table 3) as running buffer. Antibodies were diluted to 1.5 μg/mL in the running buffer, and were captured across active biosensor flow cells at 10 μL/min for 15 to 30 seconds. […] The association and dissociation of the antibodies with PAD4 were measured. One 30 second injection followed by one 15 second injection of 10 mM glycine pH 1.5 was used to regenerate the Protein A capture surface between assay cycles. For anti-human capture surface, two 30 second injections of 3 M MgCl₂ was used for regeneration. SPR measurements for mAb20 and mAb 13 SPR were done in the presence of 2 mM CaCl₂). The remaining antibodies were tested in the presence of 1 mM CaCl₂).
(§2) Rate constants kₒₙ and koff were derived from reference flow cell- and 0 nM blank-subtracted sensorgrams, and were fit to a 1:1 binding model in Biacore® Insight Evaluation software version 3.0.12.15655. Deviations from 1:1 binding model were observed, which may be caused by increased dimerization of PAD4 at higher concentrations. The equilibrium dissociation constant, KD, was calculated as the ratio of rate constants koff/kₒₙ for each PAD4 antibody.

The target of experiment [3] is extracellular matrix (ECM) proteins. As to the kind of experiment: ECM plate ELISA (Matrigel), 1 uM antibody, A450 over wells without sample.
Experiment [4] addresses T1, recombinant human PAD4. Description: SPR 37 C, captured antibody, PAD4 analyte, 2 mM EDTA. As for the experimental part:
as §1
as §2, with “antibody. For those antibodies that were tested in multiple SPR experiments, the average value and standard deviation from two or three separate experiments are listed in Tables 2 and 3.” for “antibody.”

This note sets out measurements from US20240132622A1 (Bristol-Myers Squibb, published 2024).

Positions count from the first letter of the chain named. In names and notes the source's numbering stands.

T1 sequence (Q9UM07 whole entry): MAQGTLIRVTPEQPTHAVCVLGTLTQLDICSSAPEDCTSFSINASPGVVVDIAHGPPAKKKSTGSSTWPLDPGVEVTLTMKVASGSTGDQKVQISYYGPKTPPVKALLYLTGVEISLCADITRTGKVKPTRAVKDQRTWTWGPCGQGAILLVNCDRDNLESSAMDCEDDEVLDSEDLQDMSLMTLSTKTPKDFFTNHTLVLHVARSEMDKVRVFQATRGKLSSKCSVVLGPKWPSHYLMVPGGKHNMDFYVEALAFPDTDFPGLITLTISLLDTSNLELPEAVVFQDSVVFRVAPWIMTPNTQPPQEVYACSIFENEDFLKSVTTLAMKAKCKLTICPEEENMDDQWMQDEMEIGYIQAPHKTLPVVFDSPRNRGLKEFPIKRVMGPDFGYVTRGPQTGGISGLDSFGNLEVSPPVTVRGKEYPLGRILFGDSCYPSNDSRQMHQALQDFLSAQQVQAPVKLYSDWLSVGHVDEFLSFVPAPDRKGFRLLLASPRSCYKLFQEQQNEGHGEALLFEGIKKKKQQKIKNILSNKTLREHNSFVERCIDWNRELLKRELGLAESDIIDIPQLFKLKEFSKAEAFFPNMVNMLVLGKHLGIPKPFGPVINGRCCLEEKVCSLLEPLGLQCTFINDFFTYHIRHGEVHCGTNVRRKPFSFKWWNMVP

B1: hz13-12 (antibody, IgG1, V domains shown)
VH: EVQLVQSGAEVKKPGATVKISCTSSDFNIKDHFIHWVQQAPGKGLEWMGRIDPEDDETKYAPKFQDRVTITADTSTDTAYMELSSLRSEDTAVYYCAGYGNYEGAMDYWGQGTTVTVSS
VL: DVVMTQSPLSLPVTLGQPASISCRASENVNNYGIGFMNWFQQRPGQSPRLLIYAASRRGSGVPDRFSGSGSGTDFTLKISRVEEEDVGVYYCQQSKEVPYTFGGGTKVEIK
notes: also called clone 13-based hz13-12 antibody
As usually defined, the Kd is the concentration at which binding is half-saturated. Broadly, the koff is the first-order rate constant of dissociation. Usually kon stands for the second-order rate constant of association. Regarding B1, in experiment [1], the “IC50 (average), PAD4 citrullination of peptide …, RapidFire MS” value (“IC50 (average), PAD4 citrullination” below) was determined as 42.4 nM. Moreover, in experiment [2], the Kd came out at 0.1 nM, the koff was found to be 0.0002 s⁻¹ and the kon was determined as 3.1e+06 M⁻¹ s⁻¹. The ECM Score (1 µM) in experiment [3] was 1.

B2: hz13-12 D31E (antibody, human IgG1, kappa, V domains shown)
VH: B1 VH with D31E
VL: DVVMTQSPLSLPVTLGQPASISCRASENVNNYGIGFMNWFQQRPGQSPRLLIYAASRRGSGVPDRFSGSGSGTDFTLKISRVEEEDVGVYYCQQSKEVPYTFGGGTKVEIKR
notes: IgG1.3f; also called hz3-12 D31E
Turning to B2, in experiment [2], the Kd was determined as 0.1 nM, the koff is 0.0003 s⁻¹ and the kon worked out at 2.7e+06 M⁻¹ s⁻¹.

B3: hz13-10 (antibody, V domains shown)
VH: B1 VH with T23K, S24V
VL: B1 VL
notes: light constant region not tied to this antibody
As to B3, the “IC50 (average), PAD4 citrullination” value in experiment [1] was found to be 55.8 nM. Moreover, in experiment [2], the Kd stood at 0.1 nM, the koff is 0.00017 s⁻¹ and the kon stood at 2.2e+06 M⁻¹ s⁻¹. The ECM Score (1 µM) in experiment [3] was found to be 1.

B4: hz13-11 (antibody, V domains shown)
VH: B1 VH
VL: B1 VL with L50R, E84A
notes: as for B3
With B4, in experiment [1], the “IC50 (average), PAD4 citrullination” value came to 88.7 nM. In experiment [2], the Kd worked out at 0.1 nM, the koff stood at 0.00015 s⁻¹ and the kon was determined as 1.9e+06 M⁻¹ s⁻¹. Also, the ECM Score (1 µM) in experiment [3] was found to be 1.

B5: hz20-7 (antibody, IgG1, V domains shown)
VH: QVQLVQSGAEVKKPGASVKVSCKASGYTFTNYGISWVRQAPGQGLEWMGEIYPRSGNTYHNEKFKDRVTMTTDTSTSTAYMELRSLRSDDTAVYYCARSMITTRYWYFDVWGKGTTVTVSS
VL: DIVMTQSPDSLAVSLGERATINCRASESVDTYGNSFMHWYQQKPGQPPKLLIYLASNLESGVPDRFSGSGSGTDFTLTISSLQAEDVAVYYCQQNNEDPLTFGQGTKLEIK
notes: also called clone 20-based hz20-7 antibody
For the molecule B5, the “IC50 (average), PAD4 citrullination” value in experiment [1] came to 64.7 nM. In experiment [4], the Kd was 0.5 nM, the koff is 0.00021 s⁻¹ and the kon came out at 380000 M⁻¹ s⁻¹. Also, in experiment [2], the Kd came to 0.8 nM, the koff turned out to be 0.00026 s⁻¹ and the kon came out at 350000 M⁻¹ s⁻¹. In experiment [3], this molecule showed an ECM Score (1 µM) of 5.

B6: hz20-3 (antibody, V domains shown)
VH: B5 VH with Q1E, T72A, T74K, Y95F, K113Q, T116L
VL: DIQMTQSPSSLSASVGDRVTITCRASESVDTYGNSFMHWYQQKPGKAPKLLIYLASNLESGVPSRFSGSGSGTDFTLTISSLQPEDFATYYCQQNNEDPLTFGQGTKVEIK
notes: as for B3
With B6, the “IC50 (average), PAD4 citrullination” value in experiment [1] worked out at 58 nM. For the same molecule, in experiment [4], the Kd stood at 0.9 nM, the koff is 0.00031 s⁻¹ and the kon came out at 340000 M⁻¹ s⁻¹. Moreover, in experiment [2], the Kd was found to be 0.5 nM, the koff was determined as 0.00023 s⁻¹ and the kon turned out to be 500000 M⁻¹ s⁻¹. Further, the ECM Score (1 µM) in experiment [3] came out at 20.

B7: hz20-8 (antibody, V domains shown)
VH: B5 VH
VL: B5 VL with S80D
notes: as for B3
As for B7, in experiment [1], the “IC50 (average), PAD4 citrullination” value stood at 71.9 nM. In experiment [4], the Kd came to 0.6 nM, the koff worked out at 0.00022 s⁻¹ and the kon stood at 360000 M⁻¹ s⁻¹. For the same molecule, in experiment [2], the Kd worked out at 0.8 nM, the koff was found to be 0.00025 s⁻¹ and the kon was determined as 320000 M⁻¹ s⁻¹. In experiment [3], the ECM Score (1 µM) stood at 4.

B8: hz20-11 (antibody, V domains shown)
VH: B5 VH with K12A, A40R, D89E
VL: B5 VL
notes: as for B3
Turning to B8, the “IC50 (average), PAD4 citrullination” value in experiment [1] was 65.7 nM. In addition, in experiment [4], the Kd worked out at 0.6 nM, the koff worked out at 0.00022 s⁻¹ and the kon was 390000 M⁻¹ s⁻¹. In experiment [2], the Kd turned out to be 0.9 nM, the koff is 0.00025 s⁻¹ and the kon was 300000 M⁻¹ s⁻¹. Further, in experiment [3], the ECM Score (1 µM) came to 4.

B9: hz20-4 (antibody, V domains shown)
VH: B5 VH with T72A, A79V, R84S, D89E
VL: B5 VL with Q104A, I110L
notes: as for B3
With B9, the “IC50 (average), PAD4 citrullination” value in experiment [1] was determined as 118 nM. In experiment [4], the Kd amounted to 3 nM, the koff was determined as 0.00073 s⁻¹ and the kon is 240000 M⁻¹ s⁻¹. For the same molecule, in experiment [2], the Kd turned out to be 1.7 nM, the koff turned out to be 0.00046 s⁻¹ and the kon worked out at 270000 M⁻¹ s⁻¹. This molecule also had an ECM Score (1 µM) in experiment [3] of 1.

B10: hz20-5 (antibody, V domains shown)
VH: B5 VH with A40R, M48I, T72A, A79V, R84S, D89E
VL: B5 VL with Q104A, I110L
notes: as for B3
Consider B10, for which the “IC50 (average), PAD4 citrullination” value in experiment [1] is 56.5 nM. Besides, in experiment [4], the Kd was 1.7 nM, the koff worked out at 0.0004 s⁻¹ and the kon amounted to 240000 M⁻¹ s⁻¹. In addition, in experiment [2], the Kd turned out to be 1.9 nM, the koff came to 0.00045 s⁻¹ and the on-rate (kon) was found to be 250000 M⁻¹ s⁻¹. In addition, the ECM Score (1 µM) in experiment [3] came to 3.

B11: hz20-9 (antibody, V domains shown)
VH: B5 VH with T74K
VL: B5 VL
notes: as for B3
With B11, the “IC50 (average), PAD4 citrullination” value in experiment [1] was found to be 107 nM. Further, in experiment [4], the Kd came to 0.4 nM, the koff is 0.00018 s⁻¹ and the kon is 480000 M⁻¹ s⁻¹. Also, in experiment [2], the Kd amounted to 0.3 nM, the koff is 0.00015 s⁻¹ and the kon was 490000 M⁻¹ s⁻¹. In addition, the ECM Score (1 µM) in experiment [3] came out at 19.

B12: hz20-12 (antibody, V domains shown)
VH: B5 VH with K12A, A40R, D89E
VL: B5 VL with S80D
notes: as for B3
In the case of B12, the “IC50 (average), PAD4 citrullination” value in experiment [1] turned out to be 59 nM. Moreover, in experiment [4], the Kd was determined as 0.6 nM, the koff came out at 0.00021 s⁻¹ and the kon came out at 380000 M⁻¹ s⁻¹. In experiment [2], the Kd stood at 0.6 nM, the koff worked out at 0.00019 s⁻¹ and the kon was found to be 320000 M⁻¹ s⁻¹. This molecule also gave an ECM Score (1 µM) in experiment [3] of 3.

B13: hz20-13 (antibody, V domains shown)
VH: B5 VH with A40R, T74K, D89E
VL: B5 VL
notes: as for B3
For the molecule B13, the “IC50 (average), PAD4 citrullination” value in experiment [1] is 52.6 nM. For the same molecule, in experiment [4], the Kd amounted to 0.4 nM, the koff was 0.00018 s⁻¹ and the kon is 440000 M⁻¹ s⁻¹. Moreover, in experiment [2], the Kd is 0.5 nM, the koff turned out to be 0.00019 s⁻¹ and the kon was determined as 390000 M⁻¹ s⁻¹. The molecule further had an ECM Score (1 µM) in experiment [3] of 19.

B14: hz20-14 (antibody, V domains shown)
VH: B5 VH with A40R, T74K, D89E
VL: B5 VL with S80D
notes: as for B3
Turning to B14, the “IC50 (average), PAD4 citrullination” value in experiment [1] came to 56.9 nM. Moreover, in experiment [4], the Kd worked out at 0.4 nM, the koff was 0.00018 s⁻¹ and the kon is 450000 M⁻¹ s⁻¹. In experiment [2], the Kd was determined as 0.6 nM, the koff was found to be 0.0002 s⁻¹ and the kon stood at 340000 M⁻¹ s⁻¹. This molecule gave an ECM Score (1 µM) in experiment [3] of 20.

B15: hz20-10 (antibody, V domains shown)
VH: B5 VH with T74K
VL: B5 VL with S80D
notes: as for B3
Take B15: the “IC50 (average), PAD4 citrullination” value in experiment [1] worked out at 57.4 nM. Further, in experiment [4], the Kd came to 0.4 nM, the koff was 0.00018 s⁻¹ and the kon was 480000 M⁻¹ s⁻¹. Also, in experiment [2], the Kd was 0.3 nM, the koff is 0.00017 s⁻¹ and the kon was determined as 640000 M⁻¹ s⁻¹. For the same molecule, the ECM Score (1 µM) in experiment [3] was found to be 18.
